In series [1] the target is T1, periostin (Homo sapiens) (UniProt Q15063).
T1 sequence: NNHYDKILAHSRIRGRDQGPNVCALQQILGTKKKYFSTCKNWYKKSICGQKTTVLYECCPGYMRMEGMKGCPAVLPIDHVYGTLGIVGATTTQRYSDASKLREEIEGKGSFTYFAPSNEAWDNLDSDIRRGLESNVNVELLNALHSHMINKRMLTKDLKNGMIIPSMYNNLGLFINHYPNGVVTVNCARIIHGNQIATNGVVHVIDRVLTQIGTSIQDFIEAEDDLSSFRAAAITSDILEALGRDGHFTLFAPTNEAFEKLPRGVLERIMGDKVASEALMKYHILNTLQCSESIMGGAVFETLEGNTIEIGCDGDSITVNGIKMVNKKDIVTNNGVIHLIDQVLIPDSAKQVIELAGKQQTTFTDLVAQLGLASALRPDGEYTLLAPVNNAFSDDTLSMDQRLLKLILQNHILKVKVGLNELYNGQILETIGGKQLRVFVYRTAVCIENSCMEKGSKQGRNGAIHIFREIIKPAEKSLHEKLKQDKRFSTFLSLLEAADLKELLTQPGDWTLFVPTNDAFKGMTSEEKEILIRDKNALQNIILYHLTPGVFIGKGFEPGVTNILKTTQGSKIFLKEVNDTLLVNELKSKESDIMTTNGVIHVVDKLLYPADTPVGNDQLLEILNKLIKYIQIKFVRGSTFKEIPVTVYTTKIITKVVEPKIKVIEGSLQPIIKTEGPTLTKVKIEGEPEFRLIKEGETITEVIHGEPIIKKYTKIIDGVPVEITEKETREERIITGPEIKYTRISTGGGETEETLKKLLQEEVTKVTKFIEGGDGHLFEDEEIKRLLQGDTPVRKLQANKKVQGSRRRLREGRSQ
Nature of the series: filter.

Series [2] addresses T1, periostin (Homo sapiens). Nature of the series: cell_activity. As to conditions: BndU at all n [BndU at 6,7,9,14,16,21,22,26,28,31,34,35,44]; MDA-MB-231 adhesion to periostin-coated wells, 100 nM aptamer; control aptamer no effect.

Broadly, the Kd is a measure of binding affinity in units of concentration. A low value points to tighter binding.

For the sequence “ACGAGTTGTCGCATGTGCGGTTCAGTCTGGTCCTTCAGCACCGTACAACAA [PNDA-3]”, the Kd in the series with periostin (Homo sapiens) [1] (BndU at all n [BndU at 6,7,9,14,16,21,22,26,28,31,34,35,44], Bmax 95%) came to 1.07 nM. The sequence also had an activity with periostin (Homo sapiens) [2] of 60 % inhibition.
Turning to “GATGTGAGTGTGTGACGAGTCTGGTCCTTCCTTTGACGACTATTGTTTGGTATCGGACAACAACAACAGAACAAGGAAAGG [clone 5 full length]”, in the series with periostin (Homo sapiens) [1] (BndU at all n of the core [BndU at 20,22,25,28,29,32,33,34,41,43,44,46,47,48,51,53], Bmax 80%, same buffer, 37 C), the Kd stood at 1.41 nM.
The sequence “GATGTGAGTGTGTGACGAGTCTGGTCCTTCCTGTATTAGATCATATCCTTAGGTATCGTCAACAACAGAACAAGGAAAGG [clone 1 full length]” gave a Kd with periostin (Homo sapiens) [1] (BndU at all n of the core [BndU at 20,22,25,28,29,32,34,36,37,41,44,46,49,50,54,56,59], Bmax 80%, same buffer, 37 C) of 0.6 nM.
“GATGTGAGTGTGTGACGAGTTGTCGCATGTGCGGTTCAGTCTGGTCCTTCAGCACCGTACAACAACAGAACAAGGAAAGG [clone 8 full length]”: the Kd in the series with periostin (Homo sapiens) [1] (BndU at all n of the core [BndU at 20,21,23,28,30,35,36,40,42,45,48,49,58], Bmax 81%, same buffer, 37 C) is 1.14 nM. In other words, the single-digit nanomolar range.
With “ACGAGTCTGGTCCTTCCTTTGACGACTATTGTTTGGTATCGATCAACAACAA [PNDA-1]”, the Kd with periostin (Homo sapiens) [1] (BndU at all n [BndU at 6,8,11,14,15,18,19,20,27,29,30,32,33,34,37,39,43], Bmax 92%) turned out to be 2.85 nM.
On to “GATGTGAGTGTGTGACGAGTCTGGTCCTTCCTCCCTAATTGCTGTTGAGGTATCGGCTACAACAACAGAACAAGGAAAGG [clone 17 full length]”, for which the Kd with periostin (Homo sapiens) [1] (BndU at all n of the core [BndU at 20,22,25,28,29,32,36,39,40,43,45,46,51,53,58], Bmax 78%, same buffer, 37 C) came out at 0.63 nM.
For “ACGAGTCTGGTCCTTCCTCCCTAATTGCTGTTGAGGTATCGGCTACAACAA [PNDA-4]”, in the series with periostin (Homo sapiens) [1] (BndU at all n [BndU at 6,8,11,14,15,18,22,25,26,29,31,32,37,39,44], Bmax 90%), the Kd worked out at 1 nM.
In the series with periostin (Homo sapiens) [1] (BndU at all n [BndU at 6,13,14,17,21,25,28,31,32,41], Bmax 78%), “ACGAGTCACACGTTGATGACTGGATGGTAGTTAAAGAGGGTGGGGCAACAA [PNDA-2]” returned a dissociation constant Kd of 7.41 nM.
As to “GATGTGAGTGTGTGACGAGTCACACGTTGATGACTGGATGGTAGTTAAAGAGGGTGGGGCAACAACAGAACAAGGAAAGG [clone 3 full length]”, the Kd with periostin (Homo sapiens) [1] (BndU at all n of the core [BndU at 20,27,28,31,35,39,42,45,46,55], Bmax 72%, 200 mM HEPES, 510 mM NaCl, 25 mM KCl, 25 mM MgCl2, 37 C) turned out to be 0.54 nM.

Values taken from patent US20150337309.
